Assay results as given in publication PMC8792015, “The MuvB complex binds and stabilizes nucleosomes downstream of the transcription start site of cell-cycle dependent genes”.

Target: MuvB complex (LIN9 94-542, LIN37, LIN52, LIN54 504-749, RBAP48) (Homo sapiens, UniProt Q5TKA1;Q96GY3;Q52LA3;Q6MZP7;Q09028 94-542;1-246;1-112;504-749;1-425)
Experiment: fluorescence polarization; Kd value only in figure table; FP nucleosomes/601: 50 mM Tris pH 7.5, 150 mM NaCl, 1 mM DTT, 0.1% Tween-20, 20 nM probe (stated for peptide); FP TTK: 20 nM DNA, 20 mM Tris pH 8.0, 150 mM NaCl, 0.1% Tween-20; temperature not stated
Settings: protein: recombinant; tags: GST/Strep/His tags removed by TEV; copies: 1;1;1;1;1; label: fluorescein

B1: TTK promoter 40-bp fragment (dsDNA)
DNA 1: GTGATAGCGACGGGGAAATTCAAACGTGTTTGCGGAAAGG
DNA 2: CCTTTCCGCAAACACGTTTGAATTTCCCCGTCGCTATCAC
- binding result: binds
